Source: patent publication US20210246166A1 (Bayer, published 2021)
Bridge positions count the residues as written; N and C are the ends. Square brackets hold non-standard residues; d marks the D form. Ends that are not written are not given here. * marks the point of attachment. Dihydroorotyl(S) = O=C1C[C@@H](C(=O)*)NC(=O)N1; Oic = O=C(O)[C@@H]1C[C@@H]2CCCC[C@@H]2N1; PEG7 = NCCOCCOCCOCCOCCOCCOCCOCCC(=O)O; NMeI = CC[C@H](C)[C@H](NC)C(=O)O; tBuAla = CC(C)(C)C[C@H](N)C(=O)O; 3Pal = N[C@@H](Cc1cccnc1)C(=O)O; PEG5 = NCCOCCOCCOCCOCCOCCC(=O)O; 2Thi = N[C@@H](Cc1cccs1)C(=O)O; Pen = CC(C)(S)[C@H](N)C(=O)O; NMeC = CN[C@@H](CS)C(=O)O; Orn = NCCC[C@H](N)C(=O)O; GABA = NCCCC(=O)O; Sar = CNCC(=O)O

T1: recombinant human MASP1 active protease (amino acids 297-699, C-terminal His Tag) (human, UniProt P48740 297-699)
T1 sequence: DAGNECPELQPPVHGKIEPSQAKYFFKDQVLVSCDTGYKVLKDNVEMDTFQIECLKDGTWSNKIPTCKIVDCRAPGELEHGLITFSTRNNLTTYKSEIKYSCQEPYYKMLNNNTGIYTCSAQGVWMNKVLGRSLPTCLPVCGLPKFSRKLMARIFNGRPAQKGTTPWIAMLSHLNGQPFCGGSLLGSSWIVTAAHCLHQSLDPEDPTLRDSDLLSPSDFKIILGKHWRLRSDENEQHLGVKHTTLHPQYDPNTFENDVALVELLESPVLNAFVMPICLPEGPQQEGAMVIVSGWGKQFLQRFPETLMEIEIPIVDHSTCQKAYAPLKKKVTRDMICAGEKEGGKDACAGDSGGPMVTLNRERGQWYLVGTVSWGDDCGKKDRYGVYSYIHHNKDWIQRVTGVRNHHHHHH


target: T1, recombinant human MASP1 active protease …; test: cell-based or functional assay

Binder | human MASP1 IC50 [nM]
[dA]ICSRS[tBuAla]PPI[Pen]IPD-NH2 (disulfide 3-11; N-terminus assumed; SMILES CC[C@H](C)[C@H](NC(=O)[C@@H](C)N)C(=O)N[C@H]1CSSC(C)(C)[C@@H](C(=O)N[C@H](C(=O)N2CCC[C@H]2C(=O)N[C@@H](CC(=O)O)C(N)=O)[C@@H](C)CC)NC(=O)[C@H]([C@@H](C)CC)NC(=O)[C@@H]2CCCN2C(=O)[C@@H]2CCCN2C(=O)[C@H](CC(C)(C)C)NC(=O)[C@H](CO)NC(=O)[C@H](CCCNC(=N)N)NC(=O)[C@H](CO)NC1=O) [aIC+SRS-((tBu)A)-PPI-(Pen)+IPD-NH2] | 2
AICSRS[tBuAla]P[Oic]ICI-NH2 (disulfide 3-11; N-terminus assumed; SMILES CC[C@H](C)[C@H](NC(=O)[C@@H]1CSSC[C@H](NC(=O)[C@@H](NC(=O)[C@H](C)N)[C@@H](C)CC)C(=O)N[C@@H](CO)C(=O)N[C@@H](CCCNC(=N)N)C(=O)N[C@@H](CO)C(=O)N[C@@H](CC(C)(C)C)C(=O)N2CCC[C@H]2C(=O)N2[C@@H](C[C@@H]3CCCC[C@@H]32)C(=O)N[C@@H]([C@@H](C)CC)C(=O)N1)C(N)=O) [AIC+SRS-((tBu)A)-P-(Oic)-IC+I-NH2, listing 1 of 2 here] | 3.3
AICSRS[tBuAla]P[Oic]ICI-NH2 (disulfide 3-11; N-terminus assumed; SMILES CC[C@H](C)[C@H](NC(=O)[C@@H]1CSSC[C@H](NC(=O)[C@@H](NC(=O)[C@H](C)N)[C@@H](C)CC)C(=O)N[C@@H](CO)C(=O)N[C@@H](CCCNC(=N)N)C(=O)N[C@@H](CO)C(=O)N[C@@H](CC(C)(C)C)C(=O)N2CCC[C@H]2C(=O)N2[C@@H](C[C@@H]3CCCC[C@@H]32)C(=O)N[C@@H]([C@@H](C)CC)C(=O)N1)C(N)=O) [AIC+SRS-((tBu)A)-P-(Oic)-IC+I-NH2, listing 2 of 2 here] | 2.7
[3Pal]ICSRS[tBuAla]PPI[Pen]IPD-NH2 (disulfide 3-11; N-terminus assumed; SMILES CC[C@H](C)[C@H](NC(=O)[C@@H](N)Cc1cccnc1)C(=O)N[C@H]1CSSC(C)(C)[C@@H](C(=O)N[C@H](C(=O)N2CCC[C@H]2C(=O)N[C@@H](CC(=O)O)C(N)=O)[C@@H](C)CC)NC(=O)[C@H]([C@@H](C)CC)NC(=O)[C@@H]2CCCN2C(=O)[C@@H]2CCCN2C(=O)[C@H](CC(C)(C)C)NC(=O)[C@H](CO)NC(=O)[C@H](CCCNC(=N)N)NC(=O)[C@H](CO)NC1=O) [(3-Pal)-IC+SRS-((tBu)A)-PPI-(Pen)+IPD-NH2] | 2.6
[Sar]ICSRSLP[Oic]I[Pen]IP[PEG5]-NH2 (disulfide 3-11; N-terminus assumed; SMILES CC[C@H](C)[C@H](NC(=O)CNC)C(=O)N[C@H]1CSSC(C)(C)[C@@H](C(=O)N[C@H](C(=O)N2CCC[C@H]2C(=O)NCCOCCOCCOCCOCCOCCC(N)=O)[C@@H](C)CC)NC(=O)[C@H]([C@@H](C)CC)NC(=O)[C@@H]2C[C@@H]3CCCC[C@@H]3N2C(=O)[C@@H]2CCCN2C(=O)[C@H](CC(C)C)NC(=O)[C@H](CO)NC(=O)[C@H](CCCNC(=N)N)NC(=O)[C@H](CO)NC1=O) [((N-Me)G)-IC+SRSLP-(Oic)-I-(Pen)+IP-(PEG4(19 atoms))-NH2] | 2.6
AICSRSLP[Oic]I[Pen]IPD-NH2 (disulfide 3-11; also: TFA salt) [AIC+SRSLP-(Oic)-I-(Pen)+IPD-NH2] | 2.23
AICSRSLP[Oic]I[NMeC]IP-NH2 (disulfide 3-11; N-terminus assumed; SMILES CC[C@H](C)[C@H](NC(=O)[C@H](C)N)C(=O)N[C@H]1CSSC[C@@H](C(=O)N[C@H](C(=O)N2CCC[C@H]2C(N)=O)[C@@H](C)CC)N(C)C(=O)[C@H]([C@@H](C)CC)NC(=O)[C@@H]2C[C@@H]3CCCC[C@@H]3N2C(=O)[C@@H]2CCCN2C(=O)[C@H](CC(C)C)NC(=O)[C@H](CO)NC(=O)[C@H](CCCNC(=N)N)NC(=O)[C@H](CO)NC1=O) [AIC+SRSLP-(Oic)-I-((N-Me)C)+IP-NH2] | 3.2
[Dihydroorotyl(S)]ICSRS[tBuAla]PPI[Pen]IPD-NH2 (disulfide 3-11; SMILES CC[C@H](C)[C@H](NC(=O)[C@@H]1CC(=O)NC(=O)N1)C(=O)N[C@H]1CSSC(C)(C)[C@@H](C(=O)N[C@H](C(=O)N2CCC[C@H]2C(=O)N[C@@H](CC(=O)O)C(N)=O)[C@@H](C)CC)NC(=O)[C@H]([C@@H](C)CC)NC(=O)[C@@H]2CCCN2C(=O)[C@@H]2CCCN2C(=O)[C@H](CC(C)(C)C)NC(=O)[C@H](CO)NC(=O)[C@H](CCCNC(=N)N)NC(=O)[C@H](CO)NC1=O) [(Hoo)-IC+SRS-((tBu)A)-PPI-(Pen)+IPD-NH2] | 3
[2Thi]ICSRS[tBuAla]PPI[Pen]IPD-NH2 (disulfide 3-11; N-terminus assumed; SMILES CC[C@H](C)[C@H](NC(=O)[C@@H](N)Cc1cccs1)C(=O)N[C@H]1CSSC(C)(C)[C@@H](C(=O)N[C@H](C(=O)N2CCC[C@H]2C(=O)N[C@@H](CC(=O)O)C(N)=O)[C@@H](C)CC)NC(=O)[C@H]([C@@H](C)CC)NC(=O)[C@@H]2CCCN2C(=O)[C@@H]2CCCN2C(=O)[C@H](CC(C)(C)C)NC(=O)[C@H](CO)NC(=O)[C@H](CCCNC(=N)N)NC(=O)[C@H](CO)NC1=O) [(beta-2-thienylalanine)-IC+SRS-((tBu)A)-PPI-(Pen)+IPD-NH2] | 2.6

Other lines, results leading:

human MASP1 IC50 [nM] | Binder
1.1 | PICSRS[tBuAla]PPI[Pen]IP-NH2 (disulfide 3-11; N-terminus assumed; SMILES CC[C@H](C)[C@H](NC(=O)[C@@H]1CCCN1)C(=O)N[C@H]1CSSC(C)(C)[C@@H](C(=O)N[C@H](C(=O)N2CCC[C@H]2C(N)=O)[C@@H](C)CC)NC(=O)[C@H]([C@@H](C)CC)NC(=O)[C@@H]2CCCN2C(=O)[C@@H]2CCCN2C(=O)[C@H](CC(C)(C)C)NC(=O)[C@H](CO)NC(=O)[C@H](CCCNC(=N)N)NC(=O)[C@H](CO)NC1=O) [(beta-P)-IC+SRS-((tBu)A)-PPI-(Pen)+IP-NH2]
0.96 | AICSRSLP[Oic]I[Pen]IPD-OH (disulfide 3-11) [AIC+SRSLP-(Oic)-I-(Pen)+IPD-OH (salt free form)]
2.5 | [Sar]ICSRSLP[Oic]I[Pen]IPD-OH (disulfide 3-11; N-terminus assumed; SMILES CC[C@H](C)[C@H](NC(=O)CNC)C(=O)N[C@H]1CSSC(C)(C)[C@@H](C(=O)N[C@H](C(=O)N2CCC[C@H]2C(=O)N[C@@H](CC(=O)O)C(=O)O)[C@@H](C)CC)NC(=O)[C@H]([C@@H](C)CC)NC(=O)[C@@H]2C[C@@H]3CCCC[C@@H]3N2C(=O)[C@@H]2CCCN2C(=O)[C@H](CC(C)C)NC(=O)[C@H](CO)NC(=O)[C@H](CCCNC(=N)N)NC(=O)[C@H](CO)NC1=O) [((N-Me)G)-IC+SRSLP-(Oic)-I-(Pen)+IPD-OH]
1.85 | AICSRSLP[Oic]I[Pen]IPD-OH (disulfide 3-11; also: TFA salt) [AIC+SRSLP-(Oic)-I-(Pen)+IPD-OH]
2.09 | Ac-G[NMeI]CSRSLPPICIPD-OH (disulfide 3-11; SMILES CC[C@H](C)[C@@H]1NC(=O)[C@@H]2CCCN2C(=O)[C@@H]2CCCN2C(=O)[C@H](CC(C)C)NC(=O)[C@H](CO)NC(=O)[C@H](CCCNC(=N)N)NC(=O)[C@H](CO)NC(=O)[C@@H](NC(=O)[C@H]([C@@H](C)CC)N(C)C(=O)CNC(C)=O)CSSC[C@@H](C(=O)N[C@H](C(=O)N2CCC[C@H]2C(=O)N[C@@H](CC(=O)O)C(=O)O)[C@@H](C)CC)NC1=O) [Ac-G-((N-Me)I)-C+SRSLPPIC+IPD-OH]
3 | [GABA]ICSRS[tBuAla]PPI[Pen]IPD-NH2 (disulfide 3-11; N-terminus assumed; SMILES CC[C@H](C)[C@H](NC(=O)CCCN)C(=O)N[C@H]1CSSC(C)(C)[C@@H](C(=O)N[C@H](C(=O)N2CCC[C@H]2C(=O)N[C@@H](CC(=O)O)C(N)=O)[C@@H](C)CC)NC(=O)[C@H]([C@@H](C)CC)NC(=O)[C@@H]2CCCN2C(=O)[C@@H]2CCCN2C(=O)[C@H](CC(C)(C)C)NC(=O)[C@H](CO)NC(=O)[C@H](CCCNC(=N)N)NC(=O)[C@H](CO)NC1=O) [(Gamma-Abu)-IC+SRS-((tBu)A)-PPI-(Pen)+IPD-NH2]
2 | [Orn]ICSRS[tBuAla]PPI[Pen]IPD-NH2 (disulfide 3-11; N-terminus assumed; SMILES CC[C@H](C)[C@H](NC(=O)[C@@H](N)CCCN)C(=O)N[C@H]1CSSC(C)(C)[C@@H](C(=O)N[C@H](C(=O)N2CCC[C@H]2C(=O)N[C@@H](CC(=O)O)C(N)=O)[C@@H](C)CC)NC(=O)[C@H]([C@@H](C)CC)NC(=O)[C@@H]2CCCN2C(=O)[C@@H]2CCCN2C(=O)[C@H](CC(C)(C)C)NC(=O)[C@H](CO)NC(=O)[C@H](CCCNC(=N)N)NC(=O)[C@H](CO)NC1=O) [(Orn)-IC+SRS-((tBu)A)-PPI-(Pen)+IPD-NH2]
3.7 | [Sar]ICSRSLP[Oic]I[Pen]IP[PEG7]-NH2 (disulfide 3-11; N-terminus assumed; SMILES CC[C@H](C)[C@H](NC(=O)CNC)C(=O)N[C@H]1CSSC(C)(C)[C@@H](C(=O)N[C@H](C(=O)N2CCC[C@H]2C(=O)NCCOCCOCCOCCOCCOCCOCCOCCC(N)=O)[C@@H](C)CC)NC(=O)[C@H]([C@@H](C)CC)NC(=O)[C@@H]2C[C@@H]3CCCC[C@@H]3N2C(=O)[C@@H]2CCCN2C(=O)[C@H](CC(C)C)NC(=O)[C@H](CO)NC(=O)[C@H](CCCNC(=N)N)NC(=O)[C@H](CO)NC1=O) [((N-Me)G)-IC+SRSLP-(Oic)-I-(Pen)+IP-(PEG7(25 atoms))-NH2]
